Data reported in publication PMC6004480 (Proceedings of the National Academy of Sciences of the …, 2018).

T1: MTR4, full length (human, UniProt P42285 1-1042)
T1 sequence: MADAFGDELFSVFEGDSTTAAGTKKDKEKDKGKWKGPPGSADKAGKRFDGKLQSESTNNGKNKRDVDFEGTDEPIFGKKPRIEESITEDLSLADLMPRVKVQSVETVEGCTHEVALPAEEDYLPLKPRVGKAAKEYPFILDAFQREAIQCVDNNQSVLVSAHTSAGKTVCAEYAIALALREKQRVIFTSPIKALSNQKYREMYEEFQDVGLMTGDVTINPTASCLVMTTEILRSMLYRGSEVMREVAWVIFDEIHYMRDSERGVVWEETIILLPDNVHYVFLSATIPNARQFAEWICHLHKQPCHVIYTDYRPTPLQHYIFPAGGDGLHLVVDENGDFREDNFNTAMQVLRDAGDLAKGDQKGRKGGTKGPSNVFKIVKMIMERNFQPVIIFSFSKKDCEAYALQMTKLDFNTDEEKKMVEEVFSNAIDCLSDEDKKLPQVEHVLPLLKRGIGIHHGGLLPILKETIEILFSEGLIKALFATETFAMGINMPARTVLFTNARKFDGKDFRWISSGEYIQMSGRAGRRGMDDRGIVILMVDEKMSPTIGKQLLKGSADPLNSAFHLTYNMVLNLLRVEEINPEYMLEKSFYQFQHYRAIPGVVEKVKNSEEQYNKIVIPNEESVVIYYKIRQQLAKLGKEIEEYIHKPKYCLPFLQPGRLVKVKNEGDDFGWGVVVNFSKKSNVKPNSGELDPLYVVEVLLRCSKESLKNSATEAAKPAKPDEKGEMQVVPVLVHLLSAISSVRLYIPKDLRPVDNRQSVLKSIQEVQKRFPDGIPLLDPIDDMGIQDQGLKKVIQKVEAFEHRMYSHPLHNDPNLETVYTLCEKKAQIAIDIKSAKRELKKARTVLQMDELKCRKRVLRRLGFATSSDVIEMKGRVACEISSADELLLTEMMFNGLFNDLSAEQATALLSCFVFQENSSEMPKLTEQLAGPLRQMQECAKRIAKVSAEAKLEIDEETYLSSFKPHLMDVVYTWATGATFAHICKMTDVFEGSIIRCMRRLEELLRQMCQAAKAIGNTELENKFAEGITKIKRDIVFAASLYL

B1: ZCCHC8, full length (Z1) (natural protein)
chain: MAAEVYFGDLELFEPFDHPEESIPKPVHTRFKDDDGDEEDENGVGDAELRERLRQCEETIEQLRAENQELKRKLNILTRPSGILVNDTKLDGPILQILFMNNAISKQYHQEIEEFVSNLVKRFEEQQKNDVEKTSFNLLPQPSSIVLEEDHKVEESCAIKNNKEAFSVVGSVLYFTNFCLDKLGQPLLNENPQLSEGWEIPKYHQVFSHIVSLEGQEIQVKAKRPKPHCFNCGSEEHQMKDCPMPRNAARISEKRKEYMDACGEANNQNFQQRYHAEEVEERFGRFKPGVISEELQDALGVTDKSLPPFIYRMRQLGYPPGWLKEAELENSGLALYDGKDGTDGETEVGEIQQNKSVTYDLSKLVNYPGFNISTPRGIPDEWRIFGSIPMQACQQKDVFANYLTSNFQAPGVKSGNKRSSSHSSPGSPKKQKNESNSAGSPADMELDSDMEVPHGSQSSESFQFQPPLPPDTPPLPRGTPPPVFTPPLPKGTPPLTPSDSPQTRTASGAVDEDALTLEELEEQQRRIWAALEQAESVNSDSDVPVDTPLTGNSVASSPCPNELDLPVPEGKTSEKQTLDEPEVPEIFTKKSEAGHASSPDSEVTSLCQKEKAELAPVNTEGALLDNGSVVPNCDISNGGSQKLFPADTSPSTATKIHSPIPDMSKFATGITPFEFENMAESTGMYLRIRSLLKNSPRNQQKNKKASE
B2: Substrate II (dsRNA)
RNA 1: AGUGCGCUGUAUCUUCAAGGCCACU
RNA 2: AGUGGCCUUGAAGAUACAGCGCACUAAAAAUUUUUAAAAAAAAAA
B3: Substrate III (dsRNA)
RNA 1: AGUGCGCUGUAUCUUCAAGGCCACU
RNA 2: AGUGGCCUUGAAGAUACAGCGCACUAAAAAAAAAAUUUUUAAAAA
B4: Substrate I (dsRNA)
RNA 1: AGUGCGCUGUAUCUUCAAGGCCACU
RNA 2: AGUGGCCUUGAAGAUACAGCGCACUUUUUUAAAAAAAAAAAAAAA
B5: ZCCHC8 1-327 (Z2) (domain or fragment)
chain: MAAEVYFGDLELFEPFDHPEESIPKPVHTRFKDDDGDEEDENGVGDAELRERLRQCEETIEQLRAENQELKRKLNILTRPSGILVNDTKLDGPILQILFMNNAISKQYHQEIEEFVSNLVKRFEEQQKNDVEKTSFNLLPQPSSIVLEEDHKVEESCAIKNNKEAFSVVGSVLYFTNFCLDKLGQPLLNENPQLSEGWEIPKYHQVFSHIVSLEGQEIQVKAKRPKPHCFNCGSEEHQMKDCPMPRNAARISEKRKEYMDACGEANNQNFQQRYHAEEVEERFGRFKPGVISEELQDALGVTDKSLPPFIYRMRQLGYPPGWLKEAE
B6: Copurified complex of Strep-RBM7core and full-length ZCCHC8 (Z1) (complex)
chain 1: AEADRTLFVGNLETKVTEELLFELFHQAGPVIKVKIPKDKDGKPKQFAFVNFKHEVSVPYAMNLLNGIKLYGRPIKIQFRSGSSHAPQD
chain 2: MAAEVYFGDLELFEPFDHPEESIPKPVHTRFKDDDGDEEDENGVGDAELRERLRQCEETIEQLRAENQELKRKLNILTRPSGILVNDTKLDGPILQILFMNNAISKQYHQEIEEFVSNLVKRFEEQQKNDVEKTSFNLLPQPSSIVLEEDHKVEESCAIKNNKEAFSVVGSVLYFTNFCLDKLGQPLLNENPQLSEGWEIPKYHQVFSHIVSLEGQEIQVKAKRPKPHCFNCGSEEHQMKDCPMPRNAARISEKRKEYMDACGEANNQNFQQRYHAEEVEERFGRFKPGVISEELQDALGVTDKSLPPFIYRMRQLGYPPGWLKEAELENSGLALYDGKDGTDGETEVGEIQQNKSVTYDLSKLVNYPGFNISTPRGIPDEWRIFGSIPMQACQQKDVFANYLTSNFQAPGVKSGNKRSSSHSSPGSPKKQKNESNSAGSPADMELDSDMEVPHGSQSSESFQFQPPLPPDTPPLPRGTPPPVFTPPLPKGTPPLTPSDSPQTRTASGAVDEDALTLEELEEQQRRIWAALEQAESVNSDSDVPVDTPLTGNSVASSPCPNELDLPVPEGKTSEKQTLDEPEVPEIFTKKSEAGHASSPDSEVTSLCQKEKAELAPVNTEGALLDNGSVVPNCDISNGGSQKLFPADTSPSTATKIHSPIPDMSKFATGITPFEFENMAESTGMYLRIRSLLKNSPRNQQKNKKASE
B7: Copurified complex of Strep-RBM7core and ZCCHC8 283-415 + 508-707 (Z4) (complex)
chain 1: AEADRTLFVGNLETKVTEELLFELFHQAGPVIKVKIPKDKDGKPKQFAFVNFKHEVSVPYAMNLLNGIKLYGRPIKIQFRSGSSHAPQD
chain 2: FGRFKPGVISEELQDALGVTDKSLPPFIYRMRQLGYPPGWLKEAELENSGLALYDGKDGTDGETEVGEIQQNKSVTYDLSKLVNYPGFNISTPRGIPDEWRIFGSIPMQACQQKDVFANYLTSNFQAPGVKSGGAVDEDALTLEELEEQQRRIWAALEQAESVNSDSDVPVDTPLTGNSVASSPCPNELDLPVPEGKTSEKQTLDEPEVPEIFTKKSEAGHASSPDSEVTSLCQKEKAELAPVNTEGALLDNGSVVPNCDISNGGSQKLFPADTSPSTATKIHSPIPDMSKFATGITPFEFENMAESTGMYLRIRSLLKNSPRNQQKNKKASE
B8: Copurified complex of Strep-RBM7core and ZCCHC8 1-327 (Z2) (complex)
chain 1: AEADRTLFVGNLETKVTEELLFELFHQAGPVIKVKIPKDKDGKPKQFAFVNFKHEVSVPYAMNLLNGIKLYGRPIKIQFRSGSSHAPQD
chain 2: MAAEVYFGDLELFEPFDHPEESIPKPVHTRFKDDDGDEEDENGVGDAELRERLRQCEETIEQLRAENQELKRKLNILTRPSGILVNDTKLDGPILQILFMNNAISKQYHQEIEEFVSNLVKRFEEQQKNDVEKTSFNLLPQPSSIVLEEDHKVEESCAIKNNKEAFSVVGSVLYFTNFCLDKLGQPLLNENPQLSEGWEIPKYHQVFSHIVSLEGQEIQVKAKRPKPHCFNCGSEEHQMKDCPMPRNAARISEKRKEYMDACGEANNQNFQQRYHAEEVEERFGRFKPGVISEELQDALGVTDKSLPPFIYRMRQLGYPPGWLKEAE
B9: ZCCHC8 283-415 + 508-707 (Z4) (domain or fragment)
chain: FGRFKPGVISEELQDALGVTDKSLPPFIYRMRQLGYPPGWLKEAELENSGLALYDGKDGTDGETEVGEIQQNKSVTYDLSKLVNYPGFNISTPRGIPDEWRIFGSIPMQACQQKDVFANYLTSNFQAPGVKSGGAVDEDALTLEELEEQQRRIWAALEQAESVNSDSDVPVDTPLTGNSVASSPCPNELDLPVPEGKTSEKQTLDEPEVPEIFTKKSEAGHASSPDSEVTSLCQKEKAELAPVNTEGALLDNGSVVPNCDISNGGSQKLFPADTSPSTATKIHSPIPDMSKFATGITPFEFENMAESTGMYLRIRSLLKNSPRNQQKNKKASE

Biological target: T1, MTR4, full length
Assay: SEC

Binding result, binds:
B1

Biological target: MTR4;ZCCHC8core;RBM7core (Homo sapiens?;Homo sapiens?;Homo …, UniProt P42285;Q6NZY4;Q9Y580 1-1042;1-707;6-94, |del416-507|)
Assay: EMSA

Binding result, binds:
B2, B3, B4

Biological target: T1, MTR4, full length
Assay: pull-down

Binding result, binds:
B5, PIPDMSKFATGITPFEFENMAESTGMYLRIRSLLKNSPRNQQKNKKASE (domain or fragment) [Strep-tagged ZCCHC8 C-terminal domain (Z5; 659-707)], B6, B7, B8, B9
